Earlier results on 2 substances are cited in paper PMC8297464.

By Kd is commonly meant the constant that tells how readily two partners part at equilibrium.

The target of data set [1] is Spike RBD RBD (SARS-CoV-2) (UniProt P0DTC2).
In a further data set the target is ACE2 (Homo sapiens) (UniProt Q9BYF1).

Chain of Human defensin 5 (Q01523 63-94): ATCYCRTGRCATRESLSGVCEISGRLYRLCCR

As to “SBP1 α1 helix 23-mer (from UniProt Q9BYF1)”, in data set [1], the Kd is 47 nM. As to Human defensin 5 (from UniProt Q01523), in the data set with ACE2 (Homo sapiens), the Kd was 39.3 nM.
